# B1: AKAP18δ-CFP fusion protein (other)
# chain: MERPAAGEIDANKCDHLSRGEEGTGDLETSPVGSLADLPFAAVDIQDDCGLPDVPQGNVPQGNPKRSKENRGDRNDHVKKRKKAKKDYQPNYFLSIPITNKKITAGIKVLQNSILRQDNRLTKAMVGDGSFHITLLVMQLLNEDEVNIGTDALLELKPFVEEILEGKHLTLPFHGIGTFQGQVGFVKLADGDHVSALLEIAETAKRTFQEKGILAGESRTFKPHLTFMKLSKAPMLWKKGVRKIEPGLYEQFIDHRFGEEILYQIDLCSMLKKKQSNGYYHCESSIVIGEKDRKEPEDAELVRLSKRLVENAVLKAVQQYLEETQNKKQPGEGNSVKAEEGDRNGDGSDNNRK
# notes: Expressed inside transfected HEK293 or CD8 cells (diffuse, cytosolic); also called AKAP186; AKAP188; not shown: cyan-fluorescent protein (CFP) encoded by vector pECFP (BD Biosciences Clontech)
# Biological target: T1, RIIα-YFP fusion protein (regulatory subunit RIIα of human protein kinase A fused to yellow-fluorescent … (human, UniProt P13861 2-404))
# T1 construct: whole, on cells; Expressed inside transfected HEK293 or CD8 cells (diffuse, cytosolic); also called regulatory RIIα subunit of PKA; not shown: yellow-fluorescent protein (YFP) encoded by vector pEYFP (BD Biosciences Clontech)
# T1 sequence (P13861 2-404): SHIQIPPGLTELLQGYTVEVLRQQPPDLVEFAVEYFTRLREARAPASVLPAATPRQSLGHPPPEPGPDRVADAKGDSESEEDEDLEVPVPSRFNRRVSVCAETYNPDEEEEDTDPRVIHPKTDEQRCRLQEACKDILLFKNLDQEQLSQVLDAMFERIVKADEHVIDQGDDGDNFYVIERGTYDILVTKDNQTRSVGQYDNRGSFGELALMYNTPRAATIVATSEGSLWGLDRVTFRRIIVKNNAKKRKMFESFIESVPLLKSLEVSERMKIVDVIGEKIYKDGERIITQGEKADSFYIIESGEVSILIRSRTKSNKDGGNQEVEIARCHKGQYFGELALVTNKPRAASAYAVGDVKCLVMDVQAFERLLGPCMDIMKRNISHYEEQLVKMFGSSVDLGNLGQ
# Experiment: FRET in two co-transfected HEK293 cells, time 0 min before peptide addition
# Description: FRET measurements were performed 24-48 hours after transfection, using an epifluorescence microscope (Axiovert 200M, Carl Zeiss, Jena, Germany). The data were stored using the Openlab 2.25 software (Improvision, Coventry GB). Fluorescence was excited at a wavelength of 425 nm for CFP and 488 nm for YFP. […] Non-specific background fluorescence was determined in a region with no cells and subtracted.
# This peptide inhibits the interaction between AKAP and regulatory PKA subunits in general (Klussmann et al., J. Biol. Chem. 274, 4934-4938, 1999; see schematic diagram in FIGS. 5A and B).
binder,measurement,value
B1,535/480 ratio (FRET signal) prior to addition of S-Ht31,~1.3

# Source: patent US7863432 (FORSCHUNGSVERBUND BERLIN E V, dated 2011)
